{"source": "patent US6998116", "about": "(Genentech, dated 2006)", "proteins": {"B1": {"name": "His10-Apo-2 ligand (purified soluble Apo-2 ligand residues 114-281 with N-terminal Met Gly His10 tag and enterokinase site) (ligand)", "chain": "MGHHHHHHHHHHSSGHIDDDDKHMVRERGPQRVAAHITGTRGRSNTLSSPNSKNEKALGRKINSWESSRSGHSFLSNLHLRNGELVIHEKGFYYIYSQTYFRFQEEIKENTKNDKQMVQYIYKYTSYPDPILLMKSARNSCWSKDAEYGLYSIYQGGIFELKENDRIFVSVTNEHLIDMDHEASFFGAFLVG", "notes": "Made in baculovirus-infected Sf9 cells, purified on Ni2+-NTA; also called His10-Apo-2 ECD"}}, "molecular_target": "the molecule itself", "assay": "self-association: chemical crosslinking (sulfo-NHS/EDC), SDS-PAGE and silver staining", "description": "Minor 48 kDa and 66 kDa bands were also observed, and probably represent soluble Apo-2 ligand homodimers and homotrimers. Chemical crosslinking of the purified $His10$-Apo-2 ligand by incubation with sulfo-NHS (5 mM) (Pierce Chemical) and EDC (Pierce Chemical) at 25 mM and 50 mM (FIG. 1D, lanes 1 and 2, respectively), shifted the protein into the 66 kDa band primarily.", "data": [{"protein": "B1", "values": [{"measurement": "binding result", "value": "binds"}]}]}
